# Measurements as given in PMC3554631, “Structural Basis of a Histone H3 Lysine 4 Demethylase Required for Stem Elongation in Rice” (PLoS Genetics, 2013).
# Assays:
# Type in all cases: cell-based
# Settings in all cases: mutant expressed transiently in tobacco cells, immunostaining of nuclei, at least 30 nuclei per transfection
# [1] = tested on: H3K4me1; assay: H3K4 demethylation assay in tobacco cells of JMJ703 substitution mutants, H3K4me1
# Experimental: (§1) The cDNA fragment of the J3NCZ region was amplified using primers FAJ3NCZ-F and FAJ3NCZ-R and then cloned into pFA121 vector modified from pBI121 (GenBank: AF485783.1), in which GUS was replaced by 2×FLAG∶2×HA tag. The pFA121-J3NCZ plasmid was transferred into Agrobacterium tumefaciens strain EHA105 cells for tobacco infection with the help of Agrobacterium cells harboring P19 plasmids. For in vivo histone demethylation assay, tobacco infection and nuclei isolation were performed as previously described. The immunostaining protocol was modified from http://sites.bio.indiana.edu/~pikaardlab. Briefly, the nucleus solution was placed on a poly-lysine coated slide, air dried, and then refixed with 4% formaldehyde in KPBS (1.28 M NaCl, 20 mM KCl, 80 mM Na2HPO4, 20 mM KH2PO4, pH7.2) containing 1% Triton X-100 for 20 min. After 3 washes with KPBS-1% Triton, slides were blocked with blocking solution (1% BSA in KPBS-1% Triton) and incubated at 37°C for 30 min. The blocking solution was washed off with KPBS-1% Triton and the slides were incubated with both anti-HA and histone méthylation specific antibodies diluted in blocking solution to 1∶300 at 4°C overnight. After washing with KPBS, slides were blocked and incubated with fluorescent-labeled antibodies at 37°C for 2 h. After washing with KPBS thrice, nuclei were stained with 5 µg/mL 4,6-diamidino-2-phenylindole (DAPI), coated with a drop of VECTASHIELD Mounting Medium (H-1000, Vector Laboratories), and then covered with a coverslip followed by confocal microscope (Leica) detection. In vitro histone demethylation assays were performed as previously described. FA-J3NCZ was purified after overexpression with Anti-FLAG M2 magnetic beads according the manufacturer's instruction (Sigma).
# (§2) Supplementary file pgen.1003239.s006.tif: Figure S6 Demethylation assays for JMJ703 substitution mutants that have been produced based on the structural data. The mutant names are labeled at the top left corner of each panel. Image panels from left to right are staining by DAPI, anti-HA and anti-methylated histones, respectively. Bar = 10 µm. At least 30 nuclei that expressed JMJ703 per transfection were observed and imaged. (TIF) Click here for additional data file.
# [2] = tested on: H3K4me2; assay: H3K4 demethylation assay in tobacco cells of JMJ703 substitution mutants, H3K4me2
# Experimental: as §1, §2
# [3] = tested on: H3K4me3; assay: H3K4 demethylation assay in tobacco cells of JMJ703 substitution mutants, H3K4me3
# Experimental: as §1, §2
Molecule,H3K4me1 demethylation activity [1],H3K4me2 demethylation activity [2],H3K4me3 demethylation activity [3]
"A494S: JMJ703 substitution mutant, methylation state-specificity residue (protein, UniProt Q53WJ1 1-1238, looked up, variant A494S) Lysine-specific demethylase …: MMGVTTTLNEDTEPSIPPGFGPFATLPLWGIHNDAKPAVTHSTPVQALQSIRKDSEECQPSAAVSRSDTPCSTSGTQTCRKSLRNRPPIDYSRFEHISDEDSDVEIVEKDVSSTRRRQQLPKGVLRGCAECSDCQKVIAKWNPAGARRPVLDEAPVFYPTEEEFEDTLKYIESIRPMAEPYGICRIVPPSSWKPPCLLKDKSIWEGSKFSTRVQKVDKLQNRKSSKKGRRGGMMKRRKLAESEENSATAHTQTGMQQSPERFGFEPGPEFTLQTFQKYADDFSKQYFRKDTSMDSVPSVEDIEGEYWRIVEVPTEEIEVIYGADLETGTFGSGFPKLSPETKSDAEDKYAQSGWNLNNLPRLQGSVLSFEGGDISGVLVPWVYVGMCFSSFCWHVEDHHLYSLNYMHWGAPKLWYGVPGKDAVNLESAMRKHLPELFEEQPDLLHNLVTQFSPSLLKSEGVHVYRCVQHEGEFVLTFPRAYHAGFNCGFNCAESVNVAPIDWLPIGHNAVELYREQARKITISHDKLLLGAAREAIRAQWDILFLKRNTADNMRWKSICGADSTIFKALKARIETELVQRKTLGVPAQSRKMDAEFDSIDRECALCYYDLHLSASGCPCCPEKYACLVHAKQLCSCDWDKRFFLFRYDVNELNILADALGGKLSAIHRWGVSDLGLSLSSCVKREKVQDSKTVRRLTDGPRRSYMSQASAVSLVSSSTSNEQKDEGNKIMKIASPQTNNVCPSVEQRKSENISPLKEPCVRNELSCTTNSDSNGLQYNGGLGGHKGSAPGLPVSSSPSFSSNVATRPISTSSVSMKIVQGLVASKSCIQASSRTGDSRSLLGEHHNRSPAMIHDGTNMKSSLESSNNSCRLIASDYNATPCHSSKDQVLVTPGTNASVVTLKDSSQVHSASSQQFVRTGPWTQSASHEASSPSTSALKPSLDPPAMKNLYGGFTQGSAHPGPPSFSNQQPNDGRLQRTSESLPGVEARARGHPTVTAQPALEIHSRNGGAQKGPRIANVVHRFKCSVEPLEIGVVLSGRLWSSSQAIFPKGFRSRVKYFSIVDPIQMAYYISEILDAGMQGPLFMVKLENCPGEVFINLSPTKCWNMVRERLNMEIRRQLNMGKSNLPTLQPPGSVDGLEMFGLLSPPIVQAIWARDRDHICTEYWRSRPHVLIEDPNNRHMLSQGPPLLALRGLIQRANRDELQVLRSLMTNSNNLDDSSRQQAAHIIEEEIAKQLC",no,no,yes
"Y383A: JMJ703 substitution mutant, methyl group-binding residue (protein, UniProt Q53WJ1 1-1238, looked up, variant Y383A) Lysine-specific demethylase …: MMGVTTTLNEDTEPSIPPGFGPFATLPLWGIHNDAKPAVTHSTPVQALQSIRKDSEECQPSAAVSRSDTPCSTSGTQTCRKSLRNRPPIDYSRFEHISDEDSDVEIVEKDVSSTRRRQQLPKGVLRGCAECSDCQKVIAKWNPAGARRPVLDEAPVFYPTEEEFEDTLKYIESIRPMAEPYGICRIVPPSSWKPPCLLKDKSIWEGSKFSTRVQKVDKLQNRKSSKKGRRGGMMKRRKLAESEENSATAHTQTGMQQSPERFGFEPGPEFTLQTFQKYADDFSKQYFRKDTSMDSVPSVEDIEGEYWRIVEVPTEEIEVIYGADLETGTFGSGFPKLSPETKSDAEDKYAQSGWNLNNLPRLQGSVLSFEGGDISGVLVPWVAVGMCFSSFCWHVEDHHLYSLNYMHWGAPKLWYGVPGKDAVNLESAMRKHLPELFEEQPDLLHNLVTQFSPSLLKSEGVHVYRCVQHEGEFVLTFPRAYHAGFNCGFNCAEAVNVAPIDWLPIGHNAVELYREQARKITISHDKLLLGAAREAIRAQWDILFLKRNTADNMRWKSICGADSTIFKALKARIETELVQRKTLGVPAQSRKMDAEFDSIDRECALCYYDLHLSASGCPCCPEKYACLVHAKQLCSCDWDKRFFLFRYDVNELNILADALGGKLSAIHRWGVSDLGLSLSSCVKREKVQDSKTVRRLTDGPRRSYMSQASAVSLVSSSTSNEQKDEGNKIMKIASPQTNNVCPSVEQRKSENISPLKEPCVRNELSCTTNSDSNGLQYNGGLGGHKGSAPGLPVSSSPSFSSNVATRPISTSSVSMKIVQGLVASKSCIQASSRTGDSRSLLGEHHNRSPAMIHDGTNMKSSLESSNNSCRLIASDYNATPCHSSKDQVLVTPGTNASVVTLKDSSQVHSASSQQFVRTGPWTQSASHEASSPSTSALKPSLDPPAMKNLYGGFTQGSAHPGPPSFSNQQPNDGRLQRTSESLPGVEARARGHPTVTAQPALEIHSRNGGAQKGPRIANVVHRFKCSVEPLEIGVVLSGRLWSSSQAIFPKGFRSRVKYFSIVDPIQMAYYISEILDAGMQGPLFMVKLENCPGEVFINLSPTKCWNMVRERLNMEIRRQLNMGKSNLPTLQPPGSVDGLEMFGLLSPPIVQAIWARDRDHICTEYWRSRPHVLIEDPNNRHMLSQGPPLLALRGLIQRANRDELQVLRSLMTNSNNLDDSSRQQAAHIIEEEIAKQLC",no,yes,no
"E396A: JMJ703 substitution mutant, methyl group-binding residue (protein, UniProt Q53WJ1 1-1238, looked up, variant E396A) Lysine-specific demethylase …: MMGVTTTLNEDTEPSIPPGFGPFATLPLWGIHNDAKPAVTHSTPVQALQSIRKDSEECQPSAAVSRSDTPCSTSGTQTCRKSLRNRPPIDYSRFEHISDEDSDVEIVEKDVSSTRRRQQLPKGVLRGCAECSDCQKVIAKWNPAGARRPVLDEAPVFYPTEEEFEDTLKYIESIRPMAEPYGICRIVPPSSWKPPCLLKDKSIWEGSKFSTRVQKVDKLQNRKSSKKGRRGGMMKRRKLAESEENSATAHTQTGMQQSPERFGFEPGPEFTLQTFQKYADDFSKQYFRKDTSMDSVPSVEDIEGEYWRIVEVPTEEIEVIYGADLETGTFGSGFPKLSPETKSDAEDKYAQSGWNLNNLPRLQGSVLSFEGGDISGVLVPWVYVGMCFSSFCWHVADHHLYSLNYMHWGAPKLWYGVPGKDAVNLESAMRKHLPELFEEQPDLLHNLVTQFSPSLLKSEGVHVYRCVQHEGEFVLTFPRAYHAGFNCGFNCAEAVNVAPIDWLPIGHNAVELYREQARKITISHDKLLLGAAREAIRAQWDILFLKRNTADNMRWKSICGADSTIFKALKARIETELVQRKTLGVPAQSRKMDAEFDSIDRECALCYYDLHLSASGCPCCPEKYACLVHAKQLCSCDWDKRFFLFRYDVNELNILADALGGKLSAIHRWGVSDLGLSLSSCVKREKVQDSKTVRRLTDGPRRSYMSQASAVSLVSSSTSNEQKDEGNKIMKIASPQTNNVCPSVEQRKSENISPLKEPCVRNELSCTTNSDSNGLQYNGGLGGHKGSAPGLPVSSSPSFSSNVATRPISTSSVSMKIVQGLVASKSCIQASSRTGDSRSLLGEHHNRSPAMIHDGTNMKSSLESSNNSCRLIASDYNATPCHSSKDQVLVTPGTNASVVTLKDSSQVHSASSQQFVRTGPWTQSASHEASSPSTSALKPSLDPPAMKNLYGGFTQGSAHPGPPSFSNQQPNDGRLQRTSESLPGVEARARGHPTVTAQPALEIHSRNGGAQKGPRIANVVHRFKCSVEPLEIGVVLSGRLWSSSQAIFPKGFRSRVKYFSIVDPIQMAYYISEILDAGMQGPLFMVKLENCPGEVFINLSPTKCWNMVRERLNMEIRRQLNMGKSNLPTLQPPGSVDGLEMFGLLSPPIVQAIWARDRDHICTEYWRSRPHVLIEDPNNRHMLSQGPPLLALRGLIQRANRDELQVLRSLMTNSNNLDDSSRQQAAHIIEEEIAKQLC",no,no,no
"G376A: JMJ703 substitution mutant, methyl group-binding residue (protein, UniProt Q53WJ1 1-1238, looked up, variant G376A) Lysine-specific demethylase …: MMGVTTTLNEDTEPSIPPGFGPFATLPLWGIHNDAKPAVTHSTPVQALQSIRKDSEECQPSAAVSRSDTPCSTSGTQTCRKSLRNRPPIDYSRFEHISDEDSDVEIVEKDVSSTRRRQQLPKGVLRGCAECSDCQKVIAKWNPAGARRPVLDEAPVFYPTEEEFEDTLKYIESIRPMAEPYGICRIVPPSSWKPPCLLKDKSIWEGSKFSTRVQKVDKLQNRKSSKKGRRGGMMKRRKLAESEENSATAHTQTGMQQSPERFGFEPGPEFTLQTFQKYADDFSKQYFRKDTSMDSVPSVEDIEGEYWRIVEVPTEEIEVIYGADLETGTFGSGFPKLSPETKSDAEDKYAQSGWNLNNLPRLQGSVLSFEGGDISAVLVPWVYVGMCFSSFCWHVEDHHLYSLNYMHWGAPKLWYGVPGKDAVNLESAMRKHLPELFEEQPDLLHNLVTQFSPSLLKSEGVHVYRCVQHEGEFVLTFPRAYHAGFNCGFNCAEAVNVAPIDWLPIGHNAVELYREQARKITISHDKLLLGAAREAIRAQWDILFLKRNTADNMRWKSICGADSTIFKALKARIETELVQRKTLGVPAQSRKMDAEFDSIDRECALCYYDLHLSASGCPCCPEKYACLVHAKQLCSCDWDKRFFLFRYDVNELNILADALGGKLSAIHRWGVSDLGLSLSSCVKREKVQDSKTVRRLTDGPRRSYMSQASAVSLVSSSTSNEQKDEGNKIMKIASPQTNNVCPSVEQRKSENISPLKEPCVRNELSCTTNSDSNGLQYNGGLGGHKGSAPGLPVSSSPSFSSNVATRPISTSSVSMKIVQGLVASKSCIQASSRTGDSRSLLGEHHNRSPAMIHDGTNMKSSLESSNNSCRLIASDYNATPCHSSKDQVLVTPGTNASVVTLKDSSQVHSASSQQFVRTGPWTQSASHEASSPSTSALKPSLDPPAMKNLYGGFTQGSAHPGPPSFSNQQPNDGRLQRTSESLPGVEARARGHPTVTAQPALEIHSRNGGAQKGPRIANVVHRFKCSVEPLEIGVVLSGRLWSSSQAIFPKGFRSRVKYFSIVDPIQMAYYISEILDAGMQGPLFMVKLENCPGEVFINLSPTKCWNMVRERLNMEIRRQLNMGKSNLPTLQPPGSVDGLEMFGLLSPPIVQAIWARDRDHICTEYWRSRPHVLIEDPNNRHMLSQGPPLLALRGLIQRANRDELQVLRSLMTNSNNLDDSSRQQAAHIIEEEIAKQLC",no,no,no
